Assay results taken from the RNAGym collection of RNA variant scans (doi:10.1073/pnas.2313332121).

B1: TPR t1 (parent)
chain: GACCAAUCUGCCCUCAGAGCUCGAGAACAUCUUCGGAUGCAGAGGAGGCAGGCUUCGGUGGCGCGAUAGCGCCAACGUCCUCAACCUCCAAUGCAUCCCACCACAUGAUGAUGCCUGAAGAGCCUUGGUUUUUUG

Variants of: B1
Assay: polymerase ribozyme fitness, log enrichment relative to wild type (log ratio); higher = more active; in vitro selection for triplet polymerase activity
Method in brief: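 Genotype fitness is the logarithm of its enrichment divided by wild-type enrichment, using inverse-variance-weighted averages of replicates. That logarithm is base 2. Enrichment was measured by Illumina sequencing of input and output libraries from one triplicate in vitro selection round, with frozen incubation at −7 °C, on PCR-built, transcribed mutant libraries of each subunit of a heterodimeric triplet polymerase ribozyme, retaining genotypes with ≥10 input reads and ≥1 read per output.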

Variant	polymerase ribozyme fitness (log ratio)
C53G C94A C115G G128C	-4.56
U55G A121C	0.81
C56A G61A U92C	-4.04
C56G C62G	-3.35
C53U U78C G120C	-0.0303
U54A G69C	-1.12
U54A G69U	-0.707
U54G C85G U133A	-1.09
C53G G110U	-1.58
U54G U132C	-0.456
U54A C124A G128U	-0.136
C53U C70U	-0.962
C56A G60U	0.0473
C53G C70U U125C	-3.18
U55C A66U A75U	-0.518
C53G G77A C102U G120C U125A	-2.26
C53U C102U C114A	-4.76
U54A C64U C72U C86A	-0.948
C53U C101G	-1.42
U55A C62U C85A A100U C102U	-5.11
C53G C97A G113A	-4.75
C53U A90U C101A	-2.09
U55G G69C A119U G127C	-1.89
C56A G113C	-1.7

Variant	polymerase ribozyme fitness (log ratio)
U54C G77U C79A C88U	-1.68
C53U G63A C80A A105C G113U	-6.53
C56G C102A	-1.59
C53G U106A	-0.474
U54C C56A C85G G117A	-4.42
C56A G58C	-0.496
U54C G57C U112C	1.77
C56G C62U C64U C82A C89U C123A	-3.52
C53G G58A C115A	-0.718
U55C C73A C76G A121U	0.355
C53U U78G C79A	-1.4
C56A C64U	-0.751
C53G A74G C115U	-1.15
U54A U55A G61A A74G	-1.53
U54A C64U	-0.112
U55A C62U C72U G120A	-0.106
U55C G61U A90G U112C A119U	0.196
U54G G60U	-3.4
U55C C82G A91C A105U C123G	-6.04
C56A G71A A100U	-5.55
C53U U112G	-0.00138
U55C C62U C98A	-6.18
C53U A105C G120C G122A U129A	-5.42
C56G G113C	-1.92

Variant	polymerase ribozyme fitness (log ratio)
C56G G58U U59C	1.36
C53G G63C A91C A118C	-4.54
U54C C79G U125C	-4.66
C53G A68G U87G	-4.16
C56A G120U	-0.119
U54C C94A G113U	-3.83
C53U U81A	-1.63
C53U G93A A105C G117U	-6.56
C53G C56A G117C	-4.49
C56A C64U C124U G128A	-1.71
U54C A103G	-4.75
C53G C101A	-1.03
C56A A90C	-1.57
U54C C72U	-0.0207
C56G C89G A90C	-3.29
C53G G63A	-2.58
C53U C89A C115U A119G	0.658
U55G C72G A100C A111U	-4.23
C56G C70A A118U	-2.37
U54A G113A	-1.58
C56A C124A G127A	0.497
U55A G63A U78A	-0.969
C53G G120A	0.668
C56A C115A	-0.059

Variant	polymerase ribozyme fitness (log ratio)
U54G C80G C123U	-4.41
U54G G60C U112A G117C	-5
C56G C99A	-6.98
C56G G58C	0.394
C53U C86G C115U	-1.83
C56G C80A	-1.38
U55A G77A A111U C114U	-5.73
U54A C79A G93U C114U G117A	-6.48
C53U C62U A111U A118U	-3.63
C53U G57U C62G	-2.6
C56G C64U	-0.732
C53U C72A A90U C101A	-2.92
C56A C101U G110A	-1.05
C53G G127U	-1.46
C56G C94G	-1.87
C56G C89G U96A	-2.31
C53G A119U G127C	-1.2
C53G C104U C114U G120U C123G C124A	-0.873
C56G U59G C97A	-5.51
U55C G58A G60U U78A G110A	-1.19
C53A U133G	-0.187
C53G G57A A66G C70A G113U	-7.08
C53U A91U	-2.05
C56A G93U	-2.21

Variant	polymerase ribozyme fitness (log ratio)
C53U G69A A91U G110A G113U G128U	-5.88
C56A C79G C123G U133A	1.29
U55C C72G C79U	0.018
C53G G122A	-1.37
C53U U78C	-0.767
C53U U78G	-0.118
U54G C62G U81A C98U	-4.8
C53G G61A C88A A111U U112G C124A	-1
U54A G61U C62U U96G	-6.42
C53G G61C A66C	-2.24
U55G C82U A100U G113U	-4.11
C56G A84G G120A	-0.771
U54A C88G	-1.9
U55C U59G C114U	-1.28
U54C C73G A121U	1.17
U54G A75U C89U	-0.98
C53G U125A	-2.2
C56G A66G C94A	-2.49
C56A G107A A121C	-4.32
C53G G63A A95G G110A U125C	-4.78
U54G U112A G117C	-4.03
C53G A119U C123A	-1.16
U55A C114U	-2.35
U55A C88U	0.678

Variant	polymerase ribozyme fitness (log ratio)
C53U G60C G120A	0.0788
C56A G61C	-5.03
U55A U59C U78G C82A G110A	-2.6
U54G C101G C115G U116A	-6.37
C56G C82U A91C U116C	-2.61
C53U C80A U131A	-5.6
C56A G69A C101U G110A	-5.53
U54A A95U	-0.632
C53U U54G G117A	-0.796
C56G A83C C101A C124G	0.428
C56G G120C	0.755
C56A C72A	-0.579
U54A A66G C70G C124U U129G	-6.53
C56G C94G U112A	-0.000426
C53U A103U U116C G117U A118C	-5.82
C56A U78C C98A G122A C123U U132A	-5.25
U54A C56U	-0.589
C53G C64U G120A	1.12
C53U G71C C82G	-0.812
U54A C89G	-1.31
C56G C79U	-0.342
C56G A68G C73A A111G G135U	-6.08
U54A C115U	-1.11
U55G C73G	1

Variant	polymerase ribozyme fitness (log ratio)
C56G C73G	-2.66
C53G C89U C115U	-2.67
C56A C97U G113U	-4.2
U55G C70G	-2.34
U55A C85A U112G	-2.37
C56A U67A	-6.26
C53U C64A C72U A95C A105C G122U C123G	-6.4
C53U C82A A121C	1.33
C53U G57U A121C	1.4
C56A C88U A95C A108G	-3.49
C53G C115U	-1.56
C56A A83G	-1.6
U55A	-0.12
U55C	-0.521
U55G	0.0266
C53U U59C	-0.508
C53G C73U	-0.493
C56A A100C	-1.19
U54A C101U G120A	0.15
C53U A75G A84U	-0.747
C56A U59G A83G	-1.48
C56G A111C A119U	-1.72
C53U U92G	-2.82
